B1: hexa-histidine affinity tagged (His6)-MrpC (natural protein, Myxococcus xanthus, UniProt Q9FDC4 1-248, looked up)
chain: MHGFNRPLGPIGSNVVAPLQTTSSGMMVTANKLVPGQEAIDFKGYFKVESFPHNSTIYRPGDNTDRVYLLKSGRVRLMRIGKNSTRSVVSILRPGDLFGELFRPEGTPIEEMAIAAGEAEVWSIEGRDFRAQLEARPALAVDVVRAYAERVRALRKRVLGLTFKEVPARLADTLLTLVEAHGERCPHGGETDLRGITQQDLADLVGASRSFVSTLINEMKREGVLGNVGRILCVRDQKALRKIAGKEK
B2: His6-MrpC_(AAAA) (natural protein, Myxococcus xanthus, UniProt Q9FDC4 1-248, looked up)
chain: MHGFNRPLGPIGSNVVAPLQAAAAGMMVTANKLVPGQEAIDFKGYFKVESFPHNSTIYRPGDNTDRVYLLKSGRVRLMRIGKNSTRSVVSILRPGDLFGELFRPEGTPIEEMAIAAGEAEVWSIEGRDFRAQLEARPALAVDVVRAYAERVRALRKRVLGLTFKEVPARLADTLLTLVEAHGERCPHGGETDLRGITQQDLADLVGASRSFVSTLINEMKREGVLGNVGRILCVRDQKALRKIAGKEK
B3: His6-MrpC lacking the 25 amino terminal residues (His6-MrpC_(ΔN25)) (domain or fragment, Myxococcus xanthus, UniProt Q9FDC4 26-248, looked up)
chain: MMVTANKLVPGQEAIDFKGYFKVESFPHNSTIYRPGDNTDRVYLLKSGRVRLMRIGKNSTRSVVSILRPGDLFGELFRPEGTPIEEMAIAAGEAEVWSIEGRDFRAQLEARPALAVDVVRAYAERVRALRKRVLGLTFKEVPARLADTLLTLVEAHGERCPHGGETDLRGITQQDLADLVGASRSFVSTLINEMKREGVLGNVGRILCVRDQKALRKIAGKEK

Biological target: the molecule itself
Assay: SEC

| Protein | stoichiometry N |
| --- | --- |
| B1 | 2 |
| B2 | 2 |
| B3 | 2 |
